Consider one molecule from patent US20050203007A1 (REGENTS OF THE UNIVERSITY OF MICHIGAN, published 2005).

In test [1] the target is T1, secreted, soluble furin (human, UniProt P09958 108-715, limits assumed).
T1 construct: Secreted, soluble construct; also called human furin
As to the kind of experiment: enzyme inhibition, purified variant; Kassoc.

A further test deals with T2, human PC7 (human, UniProt Q16549 142-667, limits assumed).
T2 sequence (looked up): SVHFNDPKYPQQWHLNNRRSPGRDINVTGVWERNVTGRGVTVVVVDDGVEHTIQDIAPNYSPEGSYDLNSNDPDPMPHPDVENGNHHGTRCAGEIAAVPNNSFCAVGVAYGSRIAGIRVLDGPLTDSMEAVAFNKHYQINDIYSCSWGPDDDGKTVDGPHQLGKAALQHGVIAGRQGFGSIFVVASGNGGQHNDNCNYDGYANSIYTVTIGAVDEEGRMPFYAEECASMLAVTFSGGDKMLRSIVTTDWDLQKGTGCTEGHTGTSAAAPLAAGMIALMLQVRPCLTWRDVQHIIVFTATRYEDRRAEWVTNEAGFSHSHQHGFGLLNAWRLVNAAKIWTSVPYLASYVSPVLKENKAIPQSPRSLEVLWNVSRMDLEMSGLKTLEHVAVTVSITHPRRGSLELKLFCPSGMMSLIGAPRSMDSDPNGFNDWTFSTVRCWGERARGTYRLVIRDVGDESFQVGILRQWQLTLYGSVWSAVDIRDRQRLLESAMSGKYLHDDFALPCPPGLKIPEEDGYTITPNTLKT
As to the kind of experiment: enzyme inhibition, purified variant; Kassoc.

The target of a further test is T3, secreted, soluble Kex2 (Saccharomyces cerevisiae, UniProt P13134 114-613, limits assumed).
T3 construct: Secreted, soluble construct; also called kexin
T3 sequence (looked up): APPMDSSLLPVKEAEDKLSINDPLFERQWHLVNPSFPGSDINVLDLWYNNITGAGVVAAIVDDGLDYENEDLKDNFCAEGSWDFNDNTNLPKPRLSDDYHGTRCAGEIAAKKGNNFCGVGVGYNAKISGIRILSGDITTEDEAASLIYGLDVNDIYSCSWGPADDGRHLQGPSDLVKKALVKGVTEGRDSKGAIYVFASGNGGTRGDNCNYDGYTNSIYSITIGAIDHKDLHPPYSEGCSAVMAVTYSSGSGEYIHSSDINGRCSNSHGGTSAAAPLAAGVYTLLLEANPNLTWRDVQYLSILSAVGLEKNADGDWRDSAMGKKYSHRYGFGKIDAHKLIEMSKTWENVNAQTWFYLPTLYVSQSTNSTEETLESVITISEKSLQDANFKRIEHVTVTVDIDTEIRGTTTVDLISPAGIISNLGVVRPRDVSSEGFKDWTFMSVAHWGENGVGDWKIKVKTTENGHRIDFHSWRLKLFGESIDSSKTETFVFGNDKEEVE
Put plainly: enzyme inhibition, purified variant; Kassoc.

For test [2], the target named is T1, secreted, soluble furin. Put plainly: ratio of affinities, enzyme inhibition.

T1 sequence (P09958 108-715 limits assumed): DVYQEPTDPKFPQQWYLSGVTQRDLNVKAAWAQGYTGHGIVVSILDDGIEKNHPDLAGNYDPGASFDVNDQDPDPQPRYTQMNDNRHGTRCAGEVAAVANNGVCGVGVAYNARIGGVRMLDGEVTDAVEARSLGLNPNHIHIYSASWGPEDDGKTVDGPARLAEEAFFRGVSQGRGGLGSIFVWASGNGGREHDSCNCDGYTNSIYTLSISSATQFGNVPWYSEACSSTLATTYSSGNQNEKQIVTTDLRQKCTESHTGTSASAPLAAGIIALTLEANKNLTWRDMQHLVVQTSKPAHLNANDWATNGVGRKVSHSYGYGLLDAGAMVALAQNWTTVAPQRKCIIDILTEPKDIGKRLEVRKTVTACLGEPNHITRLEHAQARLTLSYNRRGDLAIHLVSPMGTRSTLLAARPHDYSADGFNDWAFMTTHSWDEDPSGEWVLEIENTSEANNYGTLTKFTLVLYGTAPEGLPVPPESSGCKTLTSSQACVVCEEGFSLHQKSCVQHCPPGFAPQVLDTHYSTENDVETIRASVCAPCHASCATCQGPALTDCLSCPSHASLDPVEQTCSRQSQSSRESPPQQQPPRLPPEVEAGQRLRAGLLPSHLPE

B1: V33D49-R4R1-eglin (designed binder)
chain: SMGSELKSFPEVVGKTVDQAREYFTLHYPQYVVYFLPEGSRVTRDLRDNRVRVFYNPGTNVVNHVPHVG
notes: N-terminal Met removed; also called Asp49Val33-R4R1-eglin-c
As for B1, the Ka came out at 3.7e+09 M⁻¹ with secreted, soluble furin [1]; 8.7e+07 M⁻¹ in the test with human PC7; 2.4e+10 M⁻¹ with secreted, soluble Kex2. Further, the “fold preference for furin over PC7” value with secreted, soluble furin [2] was 42 fold.
